B1: R1a-B6 monovalent (VHH)
VHH: QVQLVESGGGLVQPGGSLRLSCAASGSFFSRYRMGWYRQAPGEQRELVASIAYDGSTSYADPVKGRFTISRDNANTVHLQMYSLKPDDTAVYYCNLDPPGILYWGQGTQVTVSS
notes: source: E. coli WK6, periplasmic extract, purified (Talon IMAC, Superdex 75 SEC)
B2: R1a-A5 monovalent (VHH)
VHH: QVQLVESGGGLVQPGGSLRLSCSASGSAVLFSTYPMSWYRQAPGKQRELVAAVTTDGSTSYADYAKGRFTISRDNAKNTVYLQMNSLKPEDTAVYYCNARDGFFNRYDYWGQGTQVTVSS
notes: as for B1

Biological target: recombinant H5-HA, A/Vietnam/1203/2004 (H5N1) (Influenza A virus A/Vietnam/1203/2004 …, UniProt Q5EP31, strain)
Test: SPR
Conditions: both partners purified

Row | Binder | Kd
1 | B1 | 0.51 nM
2 | B2 | 0.27 nM

— article PMC4118869 (PLoS ONE, 2014)
